Experimental findings from publication PMC2196193 are described below.

The target in this assay is MBP-III2 (rat) (UniProt P04937). Put plainly: ELISA.
Sequence of UniProt P04937 (P04937 701-808): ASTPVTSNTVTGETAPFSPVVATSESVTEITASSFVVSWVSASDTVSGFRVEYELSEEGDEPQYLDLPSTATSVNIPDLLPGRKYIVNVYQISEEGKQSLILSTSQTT

On to “rat plasma fibronectin (from UniProt P04937 25-2477) (natural protein)”, for which the Kd (commonly the equilibrium constant for the complex coming apart) came out at 28 nM.
